{"source": "paper doi:10.1101/2022.06.18.496527", "about": "(2022)", "binders": {"B1": {"name": "OsExo70F2^Δ83 (residues 84 to 689) (domain or fragment)", "chain": "ISAAAFDAAEQLIQVWDGTPEALVFEATEDEVAEYLSAVDVAIEHLARGSGGGAGGAGSSSSSTAGRAGVAVQLAMARLEEELRHLMVRHAVPLDPTGLFFSLRRLSLGSMDDLDTSSEFDAATPHSIDVAPETARGGPLVNPFEDQVFDPVRPEAVDDLRAIADRMARAGYSRELADAYCGIRRDLLDEYLSALGVERLSIDEVQRIEWKHLNDKMKKWVQAVKTVVRVLLAGERRLCDQVLSVSDELREECFIESTKGCIMQILSFGDAVAVCPRSPEKLSRILDMYEALAEVIPEMKDLCLGSSGDGVISDVQANLDRLGDAIRGTLFEFGKVLQLESSRRAMTAGEIHPMTRYVMNYLRLLVVYSDTLDALLDDNADDQIDLARAEDQDQEHLESMTPLGKRLLKLISYLEANLEEKSKLYEDSALECIFSMNNLLYIVQKVRDSELGKILGDHWVKRRNGKIRQYSKSYLRISWMKVLSFLKDDGHGSGSGSSSGSGSGHSSSRMSIKEKFKNFNLAFEEIYRNQTTWKVPDPQLREELKISISENVIPAYRAFLGRYGSQVDGGRNSGKYIKYTPEDLESQLSDLFEGAPGPANHSRRRT"}}, "molecular_target": "AVR-Pii effector domain (residues 20 to 70), purified (Magnaporthe oryzae)", "assay": "ITC"}
{"binder": "B1", "values": [{"measurement": "Kd", "result": "< 1", "unit": "nM"}]}
